According to paper PMC6746316:

Molecular target: Xenopus tropicalis ALDH16B1 (Xenopus tropicalis)
Assay: SEC

## Xenopus tropicalis ALDH16B1 (enzyme)
  stoichiometry N: 2
